Results on two molecules are retold here after doi:10.1101/831339.

What is called Kd is the constant that tells how readily two partners part at equilibrium. The low end stands for tighter binding, the high end for weaker binding.

What all share (experiment): MST
In data set [1] the target is DLA2 ΔE3B (Chlamydomonas reinhardtii, UniProt A0A2K3DW88 32-184+=VD+224-494, internal_change).
Data set [2] deals with DLA2 ΔCat (Chlamydomonas reinhardtii, UniProt A0A2K3DW88 32-269).
The target in data set [3] is DLA2 ΔCat 450 (Chlamydomonas reinhardtii, UniProt A0A2K3DW88 32-449).
For data set [4], the target named is DLA2 ΔCat 315 (Chlamydomonas reinhardtii, UniProt A0A2K3DW88 32-314).
The target of data set [5] is DLA2 WT (MST) (Chlamydomonas reinhardtii, UniProt A0A2K3DW88 32-494).
Data set [6] concerns the target T1, PratA (Synechocystis sp. PCC 6803, UniProt P73091 39-383).
T1 sequence: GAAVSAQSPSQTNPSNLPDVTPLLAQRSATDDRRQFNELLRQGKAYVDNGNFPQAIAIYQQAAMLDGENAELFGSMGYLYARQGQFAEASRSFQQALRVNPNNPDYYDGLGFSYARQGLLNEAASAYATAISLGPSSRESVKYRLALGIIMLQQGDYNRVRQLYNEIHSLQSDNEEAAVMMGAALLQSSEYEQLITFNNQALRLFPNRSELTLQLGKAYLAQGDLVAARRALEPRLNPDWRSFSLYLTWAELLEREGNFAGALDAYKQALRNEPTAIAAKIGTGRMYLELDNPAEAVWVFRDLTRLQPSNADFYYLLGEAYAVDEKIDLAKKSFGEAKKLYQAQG

Data set [7] concerns the target DLA2 ΔLip (Chlamydomonas reinhardtii, UniProt A0A2K3DW88 116-494).
For data set [8], the target named is DLA2 ΔCat 394 (Chlamydomonas reinhardtii, UniProt A0A2K3DW88 32-393).
Data set [9] concerns the target DLA2 ΔCat 462 (Chlamydomonas reinhardtii, UniProt A0A2K3DW88 32-461).

Consider UUUACGGAGAAAUUAAAACUUUAAAAAAAUUAACAUAUGACCAUGGAUC (ssRNA) [psbA 5'-UTR probe native], for which the Kd in data set [1] is 241 ± 21 nM; in data set [2], 911 ± 60 nM; in data set [3], 466 ± 65 nM; in data set [4], 607 ± 82 nM; in data set [5], 106 ± 24 nM; in data set [7], 107 ± 20 nM. The Kd in [8] stood at 558 ± 77 nM; in data set [9] it was 427 ± 55 nM. Also, in data set [6], the binding result was “no binding”.
Regarding UUUACGGAGAAAUUAAAACUUUCCCCCCCCCCCCAUAUGACCAUGGAUC (ssRNA) [psbA 5'-UTR C-stretch probe], the equilibrium dissociation constant (Kd) amounted to 244 ± 43 nM in [1], 248 ± 54 nM in data set [5] and 625 ± 75 nM in data set [9].
